The test system of the data set is Bacillus subtilis. As to the kind of experiment: cleaved RNA product abundance (RNA/gDNA barcode ratio) relative to median wild-type variant (ratio to wild type); higher = more accumulation of the downstream cleavage product. The settings on record: cleavage site: cggR-gapA (positions -7 to +36 mutated). How it is done: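 MPRA in B. subtilis. Mutagenized RNase Y cleavage-site regions (9% mutation rate) were inserted into a barcoded reporter mRNA (truncated aprE or tetM). Cells were grown in LB at 37°C to OD600 0.3. The cleaved RNA isoform was gel-purified and its barcodes counted; the RNA:gDNA barcode ratio was normalised to the median wild-type variant, and the median over barcodes is reported per variant. The printed sequence is the variable window only; the reporter flanks are not printed.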

The mark [1] stands for this setting: experiment (reporter, strain, medium): exp 2b: truncated aprE reporter, strain BJT200.
Setting [2] is: experiment (reporter, strain, medium): exp 4a: truncated aprE reporter, strain BJT201 with 2% xylose (RNase J1 expressed).
Where [3] appears, read: experiment (reporter, strain, medium): exp 6: tetM reporter, strain 168.

As to “ACAGACGAAGGAGCCGCAAAGAAGTAATTAAGGGATGAACAATCCCTCAATATAAATATCTCTCACTTATTTAAA”, the “cleaved RNA product abundance” value under setting [1] worked out at 0.181.

As for “ACAGACGAAGGAGCCGCAAAGAAGTAATTAAGGGATGAATAAACCCTCAATATAAATATCTCTCACTTATTTAAA”, the “cleaved RNA product abundance” value by setting is: under setting [1], 0.166; under setting [2], 0.198.

For the sequence “ACAGACGAAGGAGCCGCAAAGAAGTAATTAAGGGATGAATAAACCCTCATTATAAATATCTCTCACTTATTTAAA”, the “cleaved RNA product abundance” value under setting [2] is 0.148.

Regarding “ACAGACGAAGGAGCCGCAAAGAAGTAATTAAGGGATGAATAACCCCTCAATATAAATATCTCTCACTTATTTAAA”, the “cleaved RNA product abundance” value under setting [2] worked out at 0.158.

Regarding “ACAGACGAAGGAGCCGCAAAGAAGTAATTAAGGGATGAATAAGCCCTCAATATAAATATCTCTCACTTATTTAAA”, the “cleaved RNA product abundance” value under setting [2] is 0.149.

With “ACAGACGAAGGAGCCGCAAAGAAGTAATTAAGGGATGAATAATACCTCAATATAAATATCTCTCACTTATTTAAA”, the “cleaved RNA product abundance” value stood at 0.115 under setting [1] and 0.141 under setting [2].

With “ACAGACGAAGGAGCCGCAAAGAAGTAATTAAGGGATGAATAATCACTCAATATAAATATCTCTCACTTATTTAAA”, the “cleaved RNA product abundance” value under setting [2] came to 0.109.

On to “ACAGACGAAGGAGCCGCAAAGAAGTAATTAAGGGATGAATAATCCATCAATATAAATATCTCTCACTTATTTAAA”, for which the “cleaved RNA product abundance” value runs as follows: under setting [1], 0.148; under setting [2], 0.183.

For the sequence “ACAGACGAAGGAGCCGCAAAGAAGTAATTAAGGGATGAATAATCCCTAAATATAAATATCTCTCACTTATTTAAA”, the “cleaved RNA product abundance” value under setting [2] worked out at 0.234.

Consider “ACAGACGAAGGAGCCGCAAAGAAGTAATTAAGGGATGAATAATCCCTCAAAATAAATATCTCTCACTTATTTAAA”, for which the “cleaved RNA product abundance” value stood at 0.16 under setting [1] and 0.215 under setting [2].

Turning to “ACAGACGAAGGAGCCGCAAAGAAGTAATTAAGGGATGAATAATCCCTCAACATAAATATCTCTCACTTATTTAAA”, the “cleaved RNA product abundance” value under setting [2] is 0.21.

With “ACAGACGAAGGAGCCGCAAAGAAGTAATTAAGGGATGAATAATCCCTCAATATAAAAATCTCTCACTTATTTAAA”, under setting [2], the “cleaved RNA product abundance” value was 0.282.

Consider “ACAGACGAAGGAGCCGCAAAGAAGTAATTAAGGGATGAATAATCCCTCAATATAAACATCTCTCACTTATTTAAA”, for which the “cleaved RNA product abundance” value under setting [2] turned out to be 0.264.

For the sequence “ACAGACGAAGGAGCCGCAAAGAAGTAATTAAGGGATGAATAATCCCTCAATATAAATAGCTCTCACTTATTTAAA”, the “cleaved RNA product abundance” value under setting [2] amounted to 0.15.

Consider “ACAGACGAAGGAGCCGCAAAGAAGTAATTAAGGGATGAATAATCCCTCAATATAAATATCTCTCACTTATTTAAA”, for which the “cleaved RNA product abundance” value under setting [1] was 0.241, the “cleaved RNA product abundance” value under setting [2] stood at 0.333 and the “cleaved RNA product abundance” value under setting [3] stood at 0.32.

As for “ACAGACGAAGGAGCCGCAAAGAAGTAATTAAGGGATGAATAATCCCTCAATATAAATTTCTCTCACTTATTTAAA”, the “cleaved RNA product abundance” value under setting [2] is 0.122.

With “ACAGACGAAGGAGCCGCAAAGAAGTAATTAAGGGATGAATAATCCCTCAATATAACTATCTCTCACTTATTTAAA”, the “cleaved RNA product abundance” value under setting [2] was 0.215.

Regarding “ACAGACGAAGGAGCCGCAAAGAAGTAATTAAGGGATGAATAATCCCTCAATATAAGTATCTCTCACTTATTTAAA”, the “cleaved RNA product abundance” value under setting [1] amounted to 0.119.

With “ACAGACGAAGGAGCCGCAAAGAAGTAATTAAGGGATGAATAATCCCTCAATATAATTATCTCTCACTTATTTAAA”, the “cleaved RNA product abundance” value under setting [1] came to 0.151 and the “cleaved RNA product abundance” value under setting [2] is 0.199.

“ACAGACGAAGGAGCCGCAAAGAAGTAATTAAGGGATGAATAATCCCTCAATATAGATATCTCTCACTTATTTAAA”: under setting [2], the “cleaved RNA product abundance” value is 0.303.

For “ACAGACGAAGGAGCCGCAAAGAAGTAATTAAGGGATGAATAATCCCTCAATATATATATCTCTCACTTATTTAAA”, the “cleaved RNA product abundance” value under setting [1] is 0.2 and the “cleaved RNA product abundance” value under setting [2] turned out to be 0.278.

For the sequence “ACAGACGAAGGAGCCGCAAAGAAGTAATTAAGGGATGAATAATCCCTCAATGTAAATATCTCTCACTTATTTAAA”, the “cleaved RNA product abundance” value under setting [2] was determined as 0.114.

In the case of “ACAGACGAAGGAGCCGCAAAGAAGTAATTAAGGGATGAATAATCCCTCACTATAAATATCTCTCACTTATTTAAA”, the “cleaved RNA product abundance” value reads like this: under setting [1], 0.135; under setting [2], 0.168.

Consider “ACAGACGAAGGAGCCGCAAAGAAGTAATTAAGGGATGAATAATCCCTCAGTATAAATATCTCTCACTTATTTAAA”, for which the “cleaved RNA product abundance” value under setting [2] worked out at 0.0878.

For the sequence “ACAGACGAAGGAGCCGCAAAGAAGTAATTAAGGGATGAATAATCCCTCATTATAAATATCTCTCACTTATTTAAA”, the “cleaved RNA product abundance” value under setting [2] came to 0.278.

Turning to “ACAGACGAAGGAGCCGCAAAGAAGTAATTAAGGGATGAATAATCCCTCCATATAAATATCTCTCACTTATTTAAA”, the “cleaved RNA product abundance” value under setting [2] is 0.0749.

Regarding “ACAGACGAAGGAGCCGCAAAGAAGTAATTAAGGGATGAATAATCCCTCGATATAAATATCTCTCACTTATTTAAA”, the “cleaved RNA product abundance” value worked out at 0.102 under setting [1] and 0.155 under setting [2].

With “ACAGACGAAGGAGCCGCAAAGAAGTAATTAAGGGATGAATAATCCCTCTATATAAATATCTCTCACTTATTTAAA”, the “cleaved RNA product abundance” value under setting [2] was 0.193.

As to “ACAGACGAAGGAGCCGCAAAGAAGTAATTAAGGGATGAATAATCCCTGAATATAAATATCTCTCACTTATTTAAA”, the “cleaved RNA product abundance” value under setting [2] worked out at 0.253.

On to “ACAGACGAAGGAGCCGCAAAGAAGTAATTAAGGGATGAATAATCCGTCAATATAAATATCTCTCACTTATTTAAA”, for which the “cleaved RNA product abundance” value under setting [2] came out at 0.179.

With “ACAGACGAAGGAGCCGCAAAGAAGTAATTAAGGGATGAATAATCCTTCAATATAAATATCTCTCACTTATTTAAA”, the “cleaved RNA product abundance” value under setting [1] is 0.188 and the “cleaved RNA product abundance” value under setting [2] turned out to be 0.187.

Take “ACAGACGAAGGAGCCGCAAAGAAGTAATTAAGGGATGAATAATCGCTCAATATAAATATCTCTCACTTATTTAAA”: the “cleaved RNA product abundance” value under setting [2] came out at 0.0828.

In the case of “ACAGACGAAGGAGCCGCAAAGAAGTAATTAAGGGATGAATAATCTCTCAATATAAATATCTCTCACTTATTTAAA”, the “cleaved RNA product abundance” value is, setting by setting: under setting [1], 0.213; under setting [2], 0.244.

With “ACAGACGAAGGAGCCGCAAAGAAGTAATTAAGGGATGAATAATGCCTCAATATAAATATCTCTCACTTATTTAAA”, the “cleaved RNA product abundance” value under setting [2] amounted to 0.164.

Turning to “ACAGACGAAGGAGCCGCAAAGAAGTAATTAAGGGATGAATAATTCCTCAATATAAATATCTCTCACTTATTTAAA”, under setting [2], the “cleaved RNA product abundance” value stood at 0.263.

“ACAGACGAAGGAGCCGCAAAGAAGTAATTAAGGGATGAATACTCCCTCAATATAAATATCTCTCACTTATTTAAA”: under setting [2], the “cleaved RNA product abundance” value was determined as 0.324.

With “ACAGACGAAGGAGCCGCAAAGAAGTAATTAAGGGATGAATATTCCCTCAATATAAATATCTCTCACTTATTTAAA”, the “cleaved RNA product abundance” value under setting [2] turned out to be 0.293.

Take “ACAGACGAAGGAGCCGCAAAGAAGTAATTAAGGGATGAATCATCCCTCAATATAAATATCTCTCACTTATTTAAA”: under setting [2], the “cleaved RNA product abundance” value stood at 0.314.

In the case of “ACAGACGAAGGAGCCGCAAAGAAGTAATTAAGGGATGAATGATCCCTCAATATAAATATCTCTCACTTATTTAAA”, under setting [1], the “cleaved RNA product abundance” value turned out to be 0.134.

For “ACAGACGAAGGAGCCGCAAAGAAGTAATTAAGGGATGAATTATCCCTCAATATAAATATCTCTCACTTATTTAAA”, the “cleaved RNA product abundance” value under setting [2] was determined as 0.355.

As for “ACAGACGAAGGAGCCGCAAAGAAGTAATTAAGGGATGACTAATCCCTCAATATAAATATCTCTCACTTATTTAAA”, the “cleaved RNA product abundance” value runs as follows: under setting [1], 0.123; under setting [2], 0.289.

Consider “ACAGACGAAGGAGCCGCAAAGAAGTAATTAAGGGATGCATAATCCCTCAATATAAATATCTCTCACTTATTTAAA”, for which the “cleaved RNA product abundance” value reads like this: under setting [1], 0.186; under setting [2], 0.288.

“ACAGACGAAGGAGCCGCAAAGAAGTAATTAAGGGATGTATAATCCCTCAATATAAATATCTCTCACTTATTTAAA”: the “cleaved RNA product abundance” value under setting [2] was 0.346.

For “ACAGACGAAGGAGCCGCAAAGAAGTAATTAAGGGATTAATAATCCCTCAATATAAATATCTCTCACTTATTTAAA”, under setting [2], the “cleaved RNA product abundance” value is 0.379.

“ACAGACGAAGGAGCCGCAAAGAAGTAATTAAGGGCTGAATAATCCCTCAATATAAATATCTCTCACTTATTTAAA”: the “cleaved RNA product abundance” value by setting is: under setting [1], 0.161; under setting [2], 0.165.

As for “ACAGACGAAGGAGCCGCAAAGAAGTAATTAAGGGGTGAATAATCCCTCAATATAAATATCTCTCACTTATTTAAA”, the “cleaved RNA product abundance” value under setting [2] worked out at 0.308.

Regarding “ACAGACGAAGGAGCCGCAAAGAAGTAATTAAGGGTTGAATAATCCCTCAATATAAATATCTCTCACTTATTTAAA”, the “cleaved RNA product abundance” value is, setting by setting: under setting [1], 0.0812; under setting [2], 0.162.

Regarding “ACAGACGAAGGAGCCGCAAAGAAGTAATTAAGGTATGAATAATCCCTCAATATAAATATCTCTCACTTATTTAAA”, the “cleaved RNA product abundance” value runs as follows: under setting [1], 0.0974; under setting [2], 0.112.

With “ACAGACGAAGGAGCCGCAAAGAAGTAATTAAGGTATTAATAATCCCTCAATATAAATATCTCTCACTTATTTAAA”, the “cleaved RNA product abundance” value under setting [2] was 0.0968.

In the case of “ACAGACGAAGGAGCCGCAAAGAAGTAATTAAGTGATGAATAATCCCTCAATATAAATATCTCTCACTTATTTAAA”, the “cleaved RNA product abundance” value under setting [2] amounted to 0.0789.

As for “ACAGACGAAGGAGCCGCAAAGAAGTAATTAATGGATGAATAATCCCTCAATATAAATATCTCTCACTTATTTAAA”, the “cleaved RNA product abundance” value is, setting by setting: under setting [1], 0.105; under setting [2], 0.121; under setting [3], 0.0999.

Consider “ACAGACGAAGGAGCCGCAAAGAAGTAATTATGGGATGAATAATCCCTCAATATAAATATCTCTCACTTATTTAAA”, for which the “cleaved RNA product abundance” value under setting [2] was 0.169.

The values are drawn from the supplement of paper PMC11780869.
